The supplement of paper PMC10126150
± gives the standard deviation of the averaged measurements.

Tested on: ATP
Test: switch fluorescence ratio, 500 uM ATP over buffer (Cy3 cluster intensity, sum of 5 cycles each) (fold (ratio)); higher = stronger signal-on switching upon ATP binding; sequences stand for … in TCGTCGGCAGCGTCAGATGTGTATAAGAGACAGTTTTTTTTTTTTTTTTTTTTTTTTT…TC
Details: aptamer strand: ATP DNA aptamer (quencher-CACCTGGGGGAGTATTGCGGAGGAAGG + anchor), 100 nM annealed; ATP concentration: 500 uM
Summary of the method: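 Values give the fluorescence ratio for each switch-domain sequence, averaged from per-cluster ratios of summed target-cycle to summed buffer-cycle Cy3 intensity. The Cy3-labelled switching-strand clusters sat on a modified Illumina MiSeq flow-cell, were annealed to 100 nM quencher-labelled ATP aptamer, and were imaged in selection buffer, then after 15 min with 500 uM ATP at 22 °C. Five cycles ran with NaOH stripping and re-annealing between them, and clusters outside 100-1000 RFU were excluded.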
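Note: ATP exposure 15 min at 22 °C before imaging.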

| Sequence | switch fluorescence ratio |
| --- | --- |
| GCGATGGGGC | 1.04 ± 0.039 |
| GCGATGTCT | 0.9976 ± 0.0065 |
| GCGATTAAAT | 1.018 ± 0.0019 |
| GCGATTGATG | 1.02 ± 0.026 |
| GCGATTGTGT | 1.002 ± 0.0055 |
| GCGATTTCGG | 0.985 ± 0.023 |
| GCGCACCACG | 1.06 ± 0.029 |
| GCGCATGAAG | 0.983 ± 0.013 |
| GCGCATTTAG | 1.15 ± 0.066 |
| GCGCCCAGTT | 1.003 ± 0.0029 |
| GCGCCCATGA | 0.982 ± 0.043 |
| GCGCCGTGGC | 0.99035 ± 0.00081 |
| GCGCCTTAAA | 0.967 ± 0.041 |
| GCGCTAGATG | 1.008 ± 0.0093 |
| GCGCTAGTTT | 1 ± 0.016 |
| GCGCTCGGCA | 1.019 ± 0.00084 |
| GCGCTGGGTG | 1.11 ± 0.16 |
| GCGCTGGTTT | 0.99 ± 0.034 |
| GCGCTTACTA | 1.31 ± 0.079 |
| GCGGAACGGT | 1.03 ± 0.034 |
| GCGGAAGAGC | 1.06 ± 0.032 |
| GCGGAAGGCG | 1 ± 0.018 |
| GCGGAAGGGT | 1 ± 0.04 |

| Sequence | switch fluorescence ratio |
| --- | --- |
| GCGGACAGTT | 0.9675 ± 0.0086 |
| GCGGACGGAC | 1.08 ± 0.061 |
| GCGGCGGGGA | 1.01 ± 0.039 |
| GCGGCGTGTC | 1.028 ± 0.0083 |
| GCGGCTATGG | 1.01 ± 0.019 |
| GCGGCTGGGA | 1.047 ± 0.0092 |
| GCGGCTGGTT | 0.981 ± 0.05 |
| GCGGCTTGGG | 1.03 ± 0.055 |
| GCGGGAAAGT | 0.9568 ± 0.009 |
| GCGGGACCCG | 1.01 ± 0.016 |
| GCGGGAGAGG | 1.02 ± 0.033 |
| GCGGGAGGAT | 1.031 ± 0.01 |
| GCGGGAGGGA | 1.03 ± 0.015 |
| GCGGGAGGGT | 1.015 ± 0.0081 |
| GCGGGATGGC | 1.007 ± 0.0087 |
| GCGGGATTCG | 0.998 ± 0.059 |
| GCGGGCCTTG | 0.984 ± 0.068 |
| GCGGGCGGGA | 1.031 ± 0.0098 |
| GCGGGCGTCG | 0.994 ± 0.048 |
| GCGGGGAACA | 1 ± 0.017 |
| GCGGGGACGT | 1.02 ± 0.027 |
| GCGGGGAGGG | 1.05 ± 0.033 |
| GCGGGGGGCT | 1.03 ± 0.041 |

| Sequence | switch fluorescence ratio |
| --- | --- |
| GCGGGGGTCA | 0.974 ± 0.05 |
| GCGGGGGTGC | 1.03 ± 0.048 |
| GCGGGGTAGT | 1.008 ± 0.0044 |
| GCGGGGTATC | 1.09 ± 0.18 |
| GCGGGGTGGG | 0.9835 ± 0.0051 |
| GCGGGGTGTT | 1.03 ± 0.013 |
| GCGGGGTTAT | 1.03 ± 0.011 |
| GCGGGTATGG | 1 ± 0.021 |
| GCGGGTCGGA | 1.02 ± 0.039 |
| GCGGGTGAGG | 1.02 ± 0.026 |
| GCGGGTGGAT | 1.01 ± 0.053 |
| GCGGGTGGCT | 1.03 ± 0.019 |
| GCGGGTGGGA | 1.02 ± 0.034 |
| GCGGGTTAAG | 0.9832 ± 0.0023 |
| GCGGGTTTTA | 1.006 ± 0.0083 |
| GCGGTAATTT | 1 ± 0.024 |
| GCGGTACTCT | 2.27 ± 0.41 |
| GCGGTAGAGC | 1.017 ± 0.0099 |
| GCGGTCAGGG | 1.01 ± 0.016 |
| GCGGTCATGG | 0.992 ± 0.046 |
| GCGGTCCCCG | 1.11 ± 0.031 |
| GCGGTGCCTG | 0.977 ± 0.042 |
| GCGGTTAGAA | 1.02 ± 0.026 |

| Sequence | switch fluorescence ratio |
| --- | --- |
| GCGGTTCCTG | 0.9829 ± 0.0076 |
| GCGGTTGGGG | 1.01 ± 0.018 |
| GCGGTTGTCG | 1.01 ± 0.03 |
| GCGGTTTCGG | 0.994 ± 0.024 |
| GCGGTTTGAC | 1.03 ± 0.018 |
| GCGTAAAGGT | 1.014 ± 0.0064 |
| GCGTAACCGT | 0.99 ± 0.038 |
| GCGTAAGGGT | 0.985 ± 0.012 |
| GCGTAAGGTG | 1.1 ± 0.084 |
| GCGTACTCAA | 1.11 ± 0.043 |
| GCGTAGAATC | 1.02 ± 0.018 |
| GCGTAGGGCC | 1.03 ± 0.027 |
| GCGTATCTTA | 0.968 ± 0.014 |
| GCGTCAATTG | 1.02 ± 0.035 |
| GCGTCAGGTG | 3.82 ± 0.21 |
| GCGTCCGCGG | 1.26 ± 0.041 |
| GCGTCGGGGA | 1 ± 0.047 |
| GCGTCTAATC | 0.994 ± 0.011 |
| GCGTGAAGAA | 1.03 ± 0.029 |
| GCGTGATTGC | 1.06 ± 0.031 |
| GCGTGCTGAA | 1.04 ± 0.043 |
| GCGTGGAGGG | 1.013 ± 0.0029 |
| GCGTGGGGGA | 1 ± 0.039 |

| Sequence | switch fluorescence ratio |
| --- | --- |
| GCGTGGGGGC | 1.02 ± 0.019 |
| GCGTTACTTA | 1.06 ± 0.018 |
| GCGTTCGGGC | 1 ± 0.029 |
| GCGTTGGGGC | 1 ± 0.054 |
| GCGTTGTGAA | 0.9835 ± 0.0057 |
| GCGTTGTGGC | 1.01 ± 0.05 |
| GCGTTGTTGT | 0.981 ± 0.02 |
| GCGTTTAGTA | 0.992 ± 0.03 |
| GCGTTTATAC | 1.96 ± 0.56 |
| GCGTTTGGGT | 0.9955 ± 0.0041 |
| GCGTTTGGTA | 0.988 ± 0.04 |
| GCGTTTTGAG | 0.981 ± 0.025 |
| GCGTTTTGCA | 0.978 ± 0.015 |
| GCGTTTTTCA | 0.9801 ± 0.0094 |
| GCTAAAAAGC | 0.998 ± 0.033 |
| GCTAAACGTG | 0.959 ± 0.014 |
| GCTAAAGGTC | 1.05 ± 0.044 |
| GCTAAATCGC | 1.04 ± 0.034 |
| GCTAAATGTT | 0.988 ± 0.015 |
| GCTAACCATT | 1.1 ± 0.15 |
| GCTAACGTGC | 0.993 ± 0.046 |
| GCTAAGCCTG | 1.03 ± 0.017 |
| GCTAATAGCC | 1.059 ± 0.00084 |

| Sequence | switch fluorescence ratio |
| --- | --- |
| GCTAATGGGA | 0.994 ± 0.018 |
| GCTAATTGCA | 1.03 ± 0.057 |
| GCTACAGCTA | 1.01 ± 0.04 |
| GCTACCTTTT | 1.06 ± 0.069 |
| GCTACTACTG | 1.05 ± 0.022 |
| GCTACTTTGC | 1.037 ± 0.0045 |
| GCTAGAAAGA | 0.972 ± 0.0073 |
| GCTAGAGGGG | 1.02 ± 0.048 |
| GCTAGAGTGC | 0.979 ± 0.021 |
| GCTAGATGCG | 0.973 ± 0.03 |
| GCTAGCGTTC | 1 ± 0.013 |
| GCTAGCTAAG | 1.034 ± 0.0011 |
| GCTAGGGGTG | 1.07 ± 0.055 |
| GCTAGGGTGG | 0.994 ± 0.018 |
| GCTAGGGTTT | 0.965 ± 0.015 |
| GCTAGTAAAA | 1.02 ± 0.029 |
| GCTAGTATG | 0.9954 ± 0.0072 |
| GCTAGTGGTG | 1.04 ± 0.018 |
| GCTAGTGTGG | 1.03 ± 0.015 |
| GCTAGTTGGG | 0.9998 ± 0.0015 |
| GCTATACAGC | 1.03 ± 0.049 |
| GCTATAGTAT | 0.998 ± 0.0056 |
| GCTATATTTT | 0.982 ± 0.017 |

| Sequence | switch fluorescence ratio |
| --- | --- |
| GCTATCACCA | 1.31 ± 0.32 |
| GCTATCCCTG | 1.05 ± 0.018 |
| GCTATCGAGT | 1.01 ± 0.018 |
| GCTATCGTGC | 0.975 ± 0.013 |
| GCTATCTTAT | 0.9798 ± 0.008 |
| GCTATGAAAG | 0.995 ± 0.013 |
| GCTATGAATG | 1.01 ± 0.024 |
| GCTATGAGAC | 1.03 ± 0.055 |
| GCTATGAGTA | 0.9832 ± 0.0097 |
| GCTATGTGGG | 1.003 ± 0.0041 |
| GCTATTAGTG | 0.9892 ± 0.0051 |
| GCTATTGGGT | 0.95 ± 0.022 |
| GCTATTTGGA | 0.997 ± 0.012 |
| GCTCAACAGA | 1.022 ± 0.0057 |
| GCTCAACGGT | 0.9561 ± 0.0041 |
| GCTCACACGG | 1.62 ± 0.023 |
| GCTCACCTAT | 1.05 ± 0.048 |
| GCTCAGGGGA | 1.21 ± 0.097 |
| GCTCATAAAA | 1.001 ± 0.0065 |
